Assay [1] addresses T1, crab-eating macaque CLDN-5 protein (crab-eating macaque, UniProt O00501 1-218 (human entry)).
T1 construct: Expressed on cells by retrovirus; also called cCLDN-5; MDCKII/cCLDN-5
T1 chain: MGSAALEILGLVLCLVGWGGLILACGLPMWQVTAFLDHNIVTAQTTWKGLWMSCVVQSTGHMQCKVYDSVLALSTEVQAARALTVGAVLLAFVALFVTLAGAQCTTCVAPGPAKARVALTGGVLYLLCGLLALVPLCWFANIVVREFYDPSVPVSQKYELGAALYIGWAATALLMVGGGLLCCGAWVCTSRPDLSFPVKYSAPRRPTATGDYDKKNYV
The assay is described as follows: FACS on CLDN-5-expressing cells, antibody 5 µg/mL. As to the method: (§1) The obtained CLDN-expressing cells were seeded in a 10 cm dish, and on the next day, the cells were collected. The primary antibodies (100 μL) were added to the obtained 1.0×10⁵ cells and allowed to react for 1 hour at 4° C. At this time, a mixed solution of a C-CPE mutant (C-CPEmt) and a mouse anti-His tag antibody (Abeam) used in Non-Patent Literature 3 was used as positive control. The cells were washed three times with 0.2% BSA-PBS, then mixed with 100 μL of a secondary antibody solution (FITC conjugated goat anti-mouse IgG or anti-rat IgG (Jackson Immune Research, 115-095-003 or 112-095-003) 400x diluted with 1% BSA-PBS, and allowed to react for 1 hour at 4° C. The cells were washed with 0.2% BSA-TBS and then analyzed using FACS caliber (BD Bioscience).
In the same manner as in Example 1-2), a DNA fragment consisting of a cCLDN-5 protein (SEQ ID NO: 28)-encoding sequence or an mCLDN-5 protein (SEQ ID NO: 29)-encoding sequence was inserted into a pCX4pur vector, thereby obtaining vectors for preparing a retrovirus. By using these vectors with the vector for preparing a retrovirus prepared in Example 1-2), various animal species CLDN-5 protein-expressing cells were prepared. By using these cells and the antibodies (antibody concentration: 5 μg/mL, as primary antibody), FACS assay was performed in the same manner as in 3-1).

In another assay the target is T2, mouse CLDN-5 protein (mouse, UniProt O54942 1-218).
T2 construct: Expressed on cells by retrovirus; also called mCLDN-5; MDCKII/mCLDN-5
T2 sequence: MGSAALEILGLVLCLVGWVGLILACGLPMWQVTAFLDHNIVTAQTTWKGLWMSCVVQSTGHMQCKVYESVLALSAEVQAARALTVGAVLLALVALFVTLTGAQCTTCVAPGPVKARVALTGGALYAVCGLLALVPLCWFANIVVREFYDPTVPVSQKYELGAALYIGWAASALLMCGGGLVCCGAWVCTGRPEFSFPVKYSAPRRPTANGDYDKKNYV
The assay is described as follows: FACS, hybridoma supernatant on CLDN-expressing cells.
From the text: (§2) By the insertion of a DNA fragment consisting of an hCLDN-1 protein (SEQ ID NO: 30)-encoding sequence, an hCLDN-2 protein (SEQ ID NO: 31)-encoding sequence, an hCLDN-3 protein (SEQ ID NO 32)-encoding sequence, an hCLDN-4 protein (SEQ ID NO: 33)-encoding sequence, an hCLDN-6 protein (SEQ ID NO: 34)-encoding sequence, an hCLDN-7 protein (SEQ ID NO: 35)-encoding sequence, an mCLDN-1 protein (SEQ ID NO: 37)-encoding sequence, an mCLDN-2 protein (SEQ ID NO: 38)-encoding sequence, an mCLDN-3 protein (SEQ ID NO: 39)—encoding sequence, or an mCLDN-5 protein (SEQ ID NO: 29)-encoding sequence, vectors for preparing a retrovirus were obtained. By using these vectors and the vector for preparing a retrovirus prepared in Example 1-2), various CLDN protein-expressing cells were prepared. By using these cells and a culture supernatant of hybridomas producing antibodies as primary antibodies, FACS assay was performed by the following method.
as §1

The target in the next assay is T3, mCLDN-3 protein (mouse, UniProt Q9Z0G9 1-219).
T3 construct: Expressed on cells by retrovirus; also called mouse Claudin-3 protein
T3 sequence: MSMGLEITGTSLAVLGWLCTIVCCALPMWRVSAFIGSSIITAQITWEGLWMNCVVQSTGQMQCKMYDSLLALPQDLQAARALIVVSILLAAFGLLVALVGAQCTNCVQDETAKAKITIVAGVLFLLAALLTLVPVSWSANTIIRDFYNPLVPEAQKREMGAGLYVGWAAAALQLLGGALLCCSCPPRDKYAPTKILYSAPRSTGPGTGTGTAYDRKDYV
The description is as above.
From the text: as §2, §1

For a further assay, the target named is T4, mCLDN-2 protein (mouse, UniProt O88552 1-230).
T4 construct: Expressed on cells by retrovirus; also called mouse Claudin-2 protein
T4 sequence: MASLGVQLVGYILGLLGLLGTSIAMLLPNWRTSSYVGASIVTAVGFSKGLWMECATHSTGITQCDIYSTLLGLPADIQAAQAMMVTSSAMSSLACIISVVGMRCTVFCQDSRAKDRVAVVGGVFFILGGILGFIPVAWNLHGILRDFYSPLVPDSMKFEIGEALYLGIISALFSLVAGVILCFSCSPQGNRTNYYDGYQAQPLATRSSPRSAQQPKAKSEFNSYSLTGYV
The assay is described as above.
From the text: as §2, §1

The next assay has as its target T5, mCLDN-1 protein (mouse, UniProt O88551 1-211).
T5 construct: Expressed on cells by retrovirus; also called mouse Claudin-1 protein
T5 sequence: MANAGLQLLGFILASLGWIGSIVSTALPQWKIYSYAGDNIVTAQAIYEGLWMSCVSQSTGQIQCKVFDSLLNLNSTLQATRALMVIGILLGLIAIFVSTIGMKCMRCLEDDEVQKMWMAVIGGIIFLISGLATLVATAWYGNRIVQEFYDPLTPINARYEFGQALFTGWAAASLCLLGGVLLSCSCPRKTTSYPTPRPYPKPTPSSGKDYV
The description is as above.
From the text: as §2, §1

The target in assay [2] is T6, wild-type human CLDN-5 protein (human, UniProt O00501 1-218).
T6 construct: Four-transmembrane tight junction protein expressed by retrovirus on HT-1080 (or MDCKII) cells; also called hCLDN-5; human Claudin-5 protein
T6 sequence: T1 chain with G86S, L127F, G179C, S190G
The assay is described as above.
From the text: as §2, §1

The target in assay [3] is T6, wild-type human CLDN-5 protein. Description: FACS saturation binding on HT-1080/hCLDN-5, one-site fit; Lot 2. As to the method:
as §1
(§3) By using HT-1080/hCLDN-5 and 100 μL of the anti-CLDN-5 antibody at each concentration diluted with 1.0% BSA-PBS, FACS assay was performed in the same manner as in Example 3-1). […] At this time, the equation of saturation binding-one site-specific binding of Graph Pad prism 7 (Graph Pad Software) was used.

For assay [4] the target is unchanged. Description: FACS saturation binding on HT-1080/hCLDN-5, one-site fit; Lot 1. How it is done:
as §1, §3

Where a chain is given by its changes, count along the chain named.

B1: rat anti-CLDN-5 antibody R20 (antibody, rat IgG2a, V domains shown)
VH: EVQLVESGGGLVQPGRSMKLSCAVSGFTFSDYYMAWVRQAPKKGLEWVASISYEGRNTYYGDSVKGRFTISRDNAKNTLYLQMNSLRSEDTATYYCARHPRRYFDFWGPGTMVTVSS
VL: DIVMTQSPSSLAVSAGETVTINCKSSQSLLFSGDQENHLAWYQQKAGQSAKLLIYWASTRESGVPDRFIGSGSGADFTLTISSMQAEDRATYYCQQNYDIPYTFGAGTKLEL
notes: Hybridoma monoclonal; also called antibody L
B1: the binding result in assay [1] was “binds”; with mouse CLDN-5 protein, “no binding”; with mCLDN-3 protein it was “no binding”; with mCLDN-2 protein it was “no binding”; in the assay with mCLDN-1 protein, “no binding”; in assay [2], “binds”.

B2: mouse anti-CLDN-5 antibody M29 (antibody, mouse IgG3, V domains shown)
VH: EVQLVESGGGLVQPKGSLKLSCAASGFTFNIYAMHWVRQAPGKGLEWVARIRSKSSNYATYYVDSVKDRFIISRDDSQSMLYLQVNNLKTEDTAMYYCVREGNWDCFDYWGQGTTLTVSS
VL: DIVMSQSPSSLPVSVGQKVTMTCKSSQSLLYTSNQKNYLAWYQQKPGQSPKLLIYWASTRESGVPDRFTGSGSGTDFTLTISSVKAEDLAIYYCQQYYRYHTFGGGTRLEIK
notes: Hybridoma monoclonal; also called antibody D
As for B2, the binding result in assay [1] is reported as “binds”; with mouse CLDN-5 protein, “no binding”; in the assay with mCLDN-3 protein it was “no binding”; with mCLDN-2 protein, “no binding”; with mCLDN-1 protein, “no binding”; in assay [2] it was “binds”.

B3: rat anti-CLDN-5 antibody R11 (antibody, rat IgG2b, V domains shown)
VH: EVQLVESGGGLVQPGRSRKLSCAASGFTFNNYGMAWVRQAPTKGLEWVASITNSGYTTYYRDSVKGRFTISRDNAKNALYLQMDSLRSEDTATYYCTTGGYGGYFPLFDYWGHGVMVTVSS
VL: DVVMTQTPVSLSVSLGGQTSISCRSSQSLFHSDGNTYLYWYLRKPGQSPQLLIYKVSNRFSGVPDRFSGSGSGTDFTLKISRVEPEDLGLYYCYQGTHYPPTFGSGTKLEI
notes: Hybridoma monoclonal; also called antibody J
On to B3, for which the binding result is recorded as “binds” in assay [1]; “no binding” with mouse CLDN-5 protein; “no binding” with mCLDN-3 protein; “no binding” in the assay with mCLDN-2 protein; “no binding” with mCLDN-1 protein; “binds” in assay [2].

B4: mouse anti-CLDN-5 antibody M23 (antibody, mouse IgG2b, V domains shown)
VH: EVQLQQSGPVLVKPGPSVMISCKASGFTFTDYYMHWVKQSHGKSLEWIGLVYPYNGGTDYNQKFKGKATLTVDTSSSTAYMELNSLTSEDSAVYYCARCLYDGLYFYAMDYWGQGTSVTVSS
VL: DIVMSQSPSSLAVSAGEKVTMTCKSSQSLLNSRARKNYLAWYQQKAGQSPKLLMYWASTRESGVPDRFTASGSGTDFTLTISSVQAEDLAVFYCKQSYNLPWTFGGGTKLEIKR
notes: Hybridoma monoclonal; also called antibody C
For B4, the binding result in assay [1] is on record as “binds”; in the assay with mouse CLDN-5 protein, “no binding”; in the assay with mCLDN-3 protein it was “no binding”; with mCLDN-2 protein, “no binding”; in the assay with mCLDN-1 protein, “no binding”. In addition, the Kd in assay [3] came to 2.78 nM; in assay [4], 3.77 nM.

B5: rat anti-CLDN-5 antibody R8 (antibody, rat IgG2b, V domains shown)
VH: VKVVESGGGLVQPGRSMKLSCAASGFTFSDYFMAWVRQSPKKGLEWVASINYGGSRTYYEDSVKGRFTISRDNAKSTLYLQMNSLRSEDTATYYCARHPHRLFDYWGQGVMVTVSS
VL: DIVMTQSPSFLAVSVGETVTINCKSSQSFLSSGNQENYLAWYQQKPGQSPKLLIHLASTRESGVPDRFIGSGSGTDFTLTISSMQAEDVAIYYCQQHYDIPYTFGAGTKLEL
notes: Hybridoma monoclonal; also called antibody H
B5: the binding result is given as “binds” in assay [1]; “no binding” with mouse CLDN-5 protein; “no binding” in the assay with mCLDN-3 protein; “no binding” in the assay with mCLDN-2 protein; “no binding” with mCLDN-1 protein; “binds” in assay [2].

B6: rat anti-CLDN-5 antibody R28 (antibody, rat IgG2a, V domains shown)
VH: EVQLVESGGGLVQPGRSLKLSCAASGFTFSDYFMAWVRQAPKKGLEWVASINYEGSRTYYGDSVKDRFTISRDNTKTTLYLQMTSLRSEDTATYYCARHPRRYFDFWGQGVMVTVSS
VL: DIVMTQSPSSLAVSAGETVTINCKSSRSLFSSGYQENYLAWYQQKPGQSPKMLIYLASTRESGVPDRFIGSGSGTDFTLTINTLQAEDLAIYYCQQHYDIPYTFGAGTKLEL
notes: Hybridoma monoclonal; also called antibody M
As for B6, the binding result in assay [1] is given as “binds”; with mouse CLDN-5 protein, “no binding”; in the assay with mCLDN-3 protein it was “no binding”; with mCLDN-2 protein, “no binding”; with mCLDN-1 protein, “no binding”; in assay [2], “binds”.

(Values after patent publication US20200148765A1 (OSAKA UNIVERSITY, published 2020).)
